What was measured:
HeLa Kyoto [1] = test: solubility in G1/S (NP-40 vs SDS abundance) (log2 ratio); higher = more soluble; details: cell cycle stage: G1/S
HeLa Kyoto [2] = test: melting temperature (median over replicates), in situ; higher = more thermally stable
HeLa Kyoto [3] = test: solubility change mitosis vs G1/S (difference of NP-40 vs SDS log2 ratios) (log2 ratio difference); higher = more soluble in mitosis
HeLa Kyoto [4] = test: thermal stability score vs G1/S (z-score of summed log2 fold changes over temperatures); higher = more thermally stable than in G1/S
[5] = cell cycle stage: early G1 (4.5 h after nocodazole release)
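For melting temperature (median over replicates), in situ in this document: HeLa Kyoto cells synchronized by double thymidine or nocodazole block, proteins quantified by TMT10plex mass spectrometry, three independent biological replicates.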
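For solubility change mitosis vs G1/S (difference of NP-40 vs SDS log2 ratios) in this document: synchronized HeLa Kyoto cells (double thymidine block for G1/S, nocodazole release for mitosis), protein amounts in NP-40 versus SDS lysates quantified by mass spectrometry, three biological replicates.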
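For solubility in G1/S (NP-40 vs SDS abundance) in this document: HeLa Kyoto cells arrested at G1/S by double thymidine block, proteins quantified by TMT10plex mass spectrometry in mild NP-40 versus SDS extracts, three biological replicates.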
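For thermal stability score vs G1/S (z-score of summed log2 fold changes over temperatures) in this document: synchronized HeLa Kyoto cells, proteins quantified by TMT10plex mass spectrometry, three biological replicates, mitosis taken 0.5 h after nocodazole release, G1/S directly after double thymidine block.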

Sequence | solubility in G1/S (log2) (HeLa Kyoto [1]) | melting temperature (HeLa Kyoto [2]; cell cycle stage: G1/S) | melting temperature (HeLa Kyoto [2]; cell cycle stage: mitosis) | solubility change mitosis (log2) (HeLa Kyoto [3]) | thermal stability score (HeLa Kyoto [4]; [5]) | thermal stability score (HeLa Kyoto [4]; cell cycle stage: mitosis)
MASLEVSRSPRRSRRELEVRSPRQNKYSVLLPTYNERENLPLIVWLLVKSFSESGINYEIIIIDDGSPDGTRDVAEQLEKIYGSDRILLRPREKKLGLGTAYIHGMKHATGNYIIIMDADLSHHPKFIPEFIRKQKEGNFDIVSGTRYKGNGGVYGWDLKRKIISRGANFLTQILLRPGASDLTGSFRLYRKEVLEKLIEKCVSKGYVFQMEMIVRARQLNYTIGEVPISFVDRVYGESKLGGNEIVSFLKGLLTLFATT [DPM1] | -0.0525 | 53.2 °C | 52.7 °C | 0.0355 | -2.69 | 1.91
MAGTVVLDDVELREAQRDYLDFLDDEEDQGIYQSKVRELISDNQYRLIVNVNDLRRKNEKRANRLLNNAFEELVAFQRALKDFVASIDATYAKQYEEFYVGLEGSFGSKHVSPRTLTSCFLSCVVCVEGIVTKCSLVRPKVVRSVHYCPATKKTIERRYSDLTTLVAFPSSSVYPTKDEENNPLETEYGLSVYKDHQTITIQEMPEKAPAGQLPRSVDVILDDDLVDKAKPGDRVQVVGTYRCLPGKKGGYTSGTFRTVLIACNVKQMSKDAQPSFSAEDIAKIKKFSKTRSKDIFDQLAKSLAPSIHGHDYVKKAILCLLLGGVERDLENGSHIRGDINILLIGDPSVAKSQLLRYVLCTAPRAIPTTGRGSSGVGLTAAVTTDQETGERRLEAGAMVLADRGVVCIDEFDKMSDMDRTAIHEVMEQGRVTIAKAGIHARLNARCSVLAAANPVYGRYDQYKTPMENIGLQDSLLSRFDLLFIMLDQMDPEQDREISDHVLRMHRYRAPGEQDGDAMPLGSAVDILATDDPNFSQEDQQDTQIYEKHDNLLHGTKKKKEKMVSAAFMKKYIHVAKIIKPVLTQESATYIAEEYSRLRSQDSMSSDTARTSPVTARTLETLIRLATAHAKARMSKTVDLQDAEEAVELVQYAYFKKVLEKEKKRKKRSEDESETEDEEEKSQEDQEQKRKRRKTRQPDAKDGDSYDPYDFSDTEEEMPQVHTPKTADSQETKESQKVELSESRLKAFKVALLDVFREAHAQSIGMNRLTESINRDSEEPFSSVEIQAALSKMQDDNQVMVSEGIIFLI [MCM3] | 0.00594 | 51.5 °C | 51.2 °C | -0.0464 | 1.52 | 2.24
MFSKFTSILQHAVEALAPSLPLQEDFVYHWKAITHYYIETSDDKAPVTDTNIPSHLEQMLDILVQEENERESGETGPCMEYLLHHKILETLYTLGKADCPPGMKQQVLVFYTKLLGRIRQPLLPHINVHRPVQKLIRLCGEVLATPTENEEIQFLCIVCAKLKQDPYLVNFFLENKMKSLASKGVPNVISEDTLKGQDSLSTDTGQSRQPEELSGATGMEQTELEDEPPHQMDHLSTSLDNLSVTSLPEASVVCPNQDYNLVNSLLNLTRSPDGRIAVKACEGLMLLVSLPEPAAAKCLTQSTCLCELLTDRLASLYKALPQSVDPLDIETVEAINWGLDSYSHKEDASAFPGKRALISFLSWFDYCDQLIKEAQKTAAVALAKAVHERFFIGVMEPQLMQTSEMGILTSTALLHRIVRQVTSDVLLQEMVFFILGEQREPETLAEISRHPLRHRLIEHCDHISDEISIMTLRMFEHLLQKPNEHILYNLVLRNLEERNYTEYKPLCPEDKDVVENGLIAGAVDLEEDPLFTDISPENTLPNQEWLSSSPPATPDHPKNDGKTEVHKIVNSFLCLVPDDAKSSYHVEGTGYDTYLRDAHRQFRDYCAICLRWEWPGSPKALEKCNLEAAFFEGHFLKVLFDRMGRILDQPYDVNLQVTSVLSRLSLFPHPHIHEYLLDPYVNLAPGCRSLFSVIVRVVGDLMLRIQRIQDFTPKLLLVRKRLLGLEPEGPIIDHITLLEGVIVLEEFCKELAAIAFVKYHASSTP [FAM160B1] | 0.0585 | 52.1 °C | 51.1 °C | -0.212 | -0.501 | -0.078
